From patent publication US20230056252A1 (Gilead, published 2023)
Residue numbers refer to the chain shown, from its start.

B1: hPGT121.66 AAS + W/huSP34.3.8 scFv AAS + SAV + R (bispecific antibody, human IgG1, lambda, L234A L235A)
chain: EVQLVESGGGLVQPGGSLRLSCAASGFTFNTYAMNWVRQAPGKGLEWVGRIRSKYNNYATYYADSVKGRFTISRDDSKNSLYLQMNSLRTEDTAVYYCVRHGNFGHSYVSWFAYWGQGTLVTVSSGGGGSGGGGSGGGGSGGGGSQAVVTQEPSLTVSPGGTVTLTCGSSTGAVTTGHYANWVQQKPGQAPRGLIGGTNKRAPGVPARFSGSLLGGKAALTISGAQPEDEAEYYCALWYSNRWVFGGGTKLTVLEPKSSDKTHTCPPCPAPEAAGGPSVFLFPPKPKDTLMISRTPEVTCVVVDVSHEDPEVKFNWYVDGVEVHNAKTKPREEQYNSTYRVVSVLTVLHQDWLNGKEYKCKVSNKALPASIEKTISKAKGQPREPQVYTLPPSREEMTKNQVSLSCAVKGFYPSDIAVEWESNGQPENNYKTTPPVLDSDGSFFLVSKLTVDKSRWQQGNVFSCSVMHEALHNRYTQKSLSLSPGK
heavy: QMQLQESGPGLVKPSETLSLTCSVSGASISDSYWSWIRRSPGKGLEWIGYVHKSGDTNYNPSLKSRVHLSLDTSKNQVSLSLTGVTAADSGKYYCARTLHGRRIYGIVAFNEWFTYFYMDVWGTGTQVTVSSASTKGPSVFPLAPSSKSTSGGTAALGCLVKDYFPEPVTVSWNSGALTSGVHTFPAVLQSSGLYSLSSVVTVPSSSLGTQTYICNVNHKPSNTKVDKKVEPKSCDKTHTCPPCPAPEAAGGPSVFLFPPKPKDTLMISRTPEVTCVVVDVSHEDPEVKFNWYVDGVEVHNAKTKPREEQYNSTYRVVSVLTVLHQDWLNGKEYKCKVSNKALPASIEKTISKAKGQPREPQVYTLPPSREEMTKNQVSLWCLVKGFYPSDIAVEWESNGQPENNYKTTPPVLDSDGSFFLYSKLTVDKSRWQQGNVFSCSVMHEALHNHYTQKSLSLSPGK
light: not shown
B2: hPGT121.66 AAS + W/huSP34.13.8 scFv AAS + SAV + R (bispecific antibody, human IgG1, lambda, L234A L235A)
chain: B1 chain with N30S, D64A, S80T
heavy: B1 heavy
light: not shown
notes: also called 261; bispecific 261
B3: hPGT121.66 AAS + W/huSP34.34.3 scFv AAS + SAV + R (bispecific antibody, human IgG1, lambda, L234A L235A)
chain: not shown
heavy: B1 heavy
light: not shown
B4: h3BNC117.52.64 AAS + SAV + YTE/huSP34.3.13 scFv AAS + W + YTE (bispecific antibody, human IgG1, kappa, L234A L235A)
chain: B1 chain with N199S, K200N, M291Y, S293T, T295E, S405W, A407L, V446Y, R474H
heavy: QVQLLQSGAAVTKPGASVRVSCEASGYNIRDYFIHWWRQAPGQGLQWVGWINPKTGQPNNPRQFQGRVSLTRHASFDFDTFSFYMDLKALRSDDTAVYFCARQRSDYWDFDVWGSGTQVTVSSASTKGPSVFPLAPSSKSTSGGTAALGCLVKDYFPEPVTVSWNSGALTSGVHTFPAVLQSSGLYSLSSVVTVPSSSLGTQTYICNVNHKPSNTKVDKKVEPKSCDKTHTCPPCPAPEAAGGPSVFLFPPKPKDTLYITREPEVTCVVVDVSHEDPEVKFNWYVDGVEVHNAKTKPREEQYNSTYRVVSVLTVLHQDWLNGKEYKCKVSNKALPASIEKTISKAKGQPREPQVYTLPPSREEMTKNQVSLSCAVKGFYPSDIAVEWESNGQPENNYKTTPPVLDSDGSFFLVSKLTVDKSRWQQGNVFSCSVMHEALHNHYTQKSLSLSPGK
light: DIQMTQSPSSLSASVGDTATITCQANGYLNWYQQRRGKAPKLLIYDGSKLERGVPSRFSGRRWGQEYNLTINNLQPEDIATYFCQVYEFVVPGTRLDLKRTVAAPSVFIFPPSDEQLKSGTASVVCLLNNFYPREAKVQWKVDNALQSGNSQESVTEQDSKDSTYSLSSTLTLSKADYEKHKVYACEVTHQGLSSPVTKSFNRGEC
B5: hPGT121.66 AAS W/huSP34.39.13 scFv AAS + SAV + R (bispecific antibody, human IgG1, lambda, L234A L235A)
chain: B1 chain with G68S, Q84E, N199S, K200N
heavy: B1 heavy
light: not shown
B6: hCD4D1.22 Fc AAS + W + YTE/huSP34.39.13 AAS + SAV + R (bispecific antibody, human IgG1, lambda, L234A L235A)
chain: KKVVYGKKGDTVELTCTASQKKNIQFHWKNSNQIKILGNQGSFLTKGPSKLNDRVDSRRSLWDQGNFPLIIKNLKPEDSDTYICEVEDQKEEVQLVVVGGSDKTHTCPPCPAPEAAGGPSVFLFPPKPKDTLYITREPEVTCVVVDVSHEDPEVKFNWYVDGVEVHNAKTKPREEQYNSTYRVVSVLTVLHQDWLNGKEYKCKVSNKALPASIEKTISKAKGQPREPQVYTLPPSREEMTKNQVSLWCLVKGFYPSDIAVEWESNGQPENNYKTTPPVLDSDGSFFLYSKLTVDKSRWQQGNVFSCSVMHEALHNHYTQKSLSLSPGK
heavy: EVQLVESGGGLVQPGGSLRLSCAASGFTFNTYAMNWVRQAPGKGLEWVGRIRSKYNNYATYYADSVKSRFTISRDDSKNSLYLEMNSLRTEDTAVYYCVRHGNFGHSYVSWFAYWGQGTLVTVSSASTKGPSVFPLAPSSKSTSGGTAALGCLVKDYFPEPVTVSWNSGALTSGVHTFPAVLQSSGLYSLSSVVTVPSSSLGTQTYICNVNHKPSNTKVDKKVEPKSCDKTHTCPPCPAPEAAGGPSVFLFPPKPKDTLMISRTPEVTCVVVDVSHEDPEVKFNWYVDGVEVHNAKTKPREEQYNSTYRVVSVLTVLHQDWLNGKEYKCKVSNKALPASIEKTISKAKGQPREPQVYTLPPSREEMTKNQVSLSCAVKGFYPSDIAVEWESNGQPENNYKTTPPVLDSDGSFFLVSKLTVDKSRWQQGNVFSCSVMHEALHNRYTQKSLSLSPGK
light: QAVVTQEPSLTVSPGGTVTLTCGSSTGAVTTGHYANWVQQKPGQAPRGLIGGTSNRAPGVPARFSGSLLGGKAALTISGAQPEDEAEYYCALWYSNRWVFGGGTKLTVLGQPKAAPSVTLFPPSSEELQANKATLVCLISDFYPGAVTVAWKADSSPVKAGVETTTPSKQSNNKYAASSYLSLTPEQWKSHRSYSCQVTHEGSTVEKTVAPTECS
notes: also called 180; bispecific 180
B7: hCD4D1.22 Fc AAS + W + YTE/huSP34.41.13 AAS + SAV + R (bispecific antibody, human IgG1, lambda, L234A L235A)
chain: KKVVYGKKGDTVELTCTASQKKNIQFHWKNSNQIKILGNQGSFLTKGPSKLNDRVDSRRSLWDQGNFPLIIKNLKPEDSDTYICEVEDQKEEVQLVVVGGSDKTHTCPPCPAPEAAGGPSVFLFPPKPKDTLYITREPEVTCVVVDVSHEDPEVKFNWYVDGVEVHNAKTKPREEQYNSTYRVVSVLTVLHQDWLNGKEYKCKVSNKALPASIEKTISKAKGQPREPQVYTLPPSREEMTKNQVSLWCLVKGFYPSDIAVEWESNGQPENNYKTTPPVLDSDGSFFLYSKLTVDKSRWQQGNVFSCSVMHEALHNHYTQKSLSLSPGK
heavy: B6 heavy with R19S, E84Q
light: B6 light
B8: hCD4D1.22 Fc AAS + W + YTE/huSP34.40.13 AAS + SAV + R (bispecific antibody, human IgG1, lambda, L234A L235A)
chain: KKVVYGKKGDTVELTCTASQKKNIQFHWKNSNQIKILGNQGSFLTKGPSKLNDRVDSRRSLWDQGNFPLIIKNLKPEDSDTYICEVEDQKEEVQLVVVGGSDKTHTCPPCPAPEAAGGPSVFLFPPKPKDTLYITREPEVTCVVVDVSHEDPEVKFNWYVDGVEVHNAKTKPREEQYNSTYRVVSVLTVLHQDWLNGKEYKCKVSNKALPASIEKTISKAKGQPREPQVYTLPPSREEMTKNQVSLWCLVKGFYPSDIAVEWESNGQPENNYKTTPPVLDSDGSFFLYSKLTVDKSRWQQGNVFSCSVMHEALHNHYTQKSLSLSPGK
heavy: B6 heavy with T60A, E84Q
light: B6 light
notes: also called 188; bispecific 188

These binders were tested against T1, biotinylated CD3 epsilon:delta heterodimer protein (Amsbio AMS.CDD-H52WO) (Homo sapiens (Human), UniProt P07766 23-126; P04234 22-105) (assay: BLI (Octet), CD3 on SA sensor, bispecific analyte).
T1 construct: also called CD3 heterodimer
With B1 the Kd was 7.1 nM, the koff was 0.000475 s⁻¹ and the kon was 66600 M⁻¹ s⁻¹. B2 gave a Kd of 20.8 nM, a koff of 0.000947 s⁻¹ and a kon of 48500 M⁻¹ s⁻¹. For B3, the Kd was 10.3 nM, the koff was 0.00619 s⁻¹ and the kon was 620000 M⁻¹ s⁻¹.

The binders below were run against T2, biotinylated Human CD3E and CD3D (Acro Biosystems Cat CDD-H82W1) (human, UniProt P07766 23-126; P04234 22-105) (assay: SPR (Biacore 4000), CD3 captured on streptavidin chip;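 also: bispecific antibodies or Fabs injected at several concentrations over CD3 surfaces of varying density, sensorgrams fitted with a simple kinetic model to obtain association, dissociation and equilibrium constants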).
T2 construct: also called biotinylated CD3
In the case of B1, the Kd is reported as 2.5 nM, the koff is reported as 0.0071 s⁻¹ and the kon is reported as 2.8e+06 M⁻¹ s⁻¹. B4 was tested, and the Kd was 2.7 nM, the koff was 0.0087 s⁻¹ and the kon was 3.3e+06 M⁻¹ s⁻¹. B5 gave a Kd of 2.6 nM, a koff of 0.009 s⁻¹ and a kon of 3.4e+06 M⁻¹ s⁻¹. Work on B3 yielded a Kd of 43 nM, a koff of 0.017 s⁻¹ and a kon of 390000 M⁻¹ s⁻¹. In the case of B6, the Kd is reported as 2.5 nM, the koff is reported as 0.0049 s⁻¹ and the kon is reported as 2e+06 M⁻¹ s⁻¹. B7 gave a Kd of 2 nM, a koff of 0.0047 s⁻¹ and a kon of 2.4e+06 M⁻¹ s⁻¹. For B8, the Kd was 1.6 nM, the koff was 0.0036 s⁻¹ and the kon was 2.2e+06 M⁻¹ s⁻¹.
